Assay [1] addresses T1, human DR4 (Death Receptor 4), cell surface expressed on human tumor cell lines (human, UniProt O00220 24-468).
T1 construct: also called TNFRSF10A; TRAIL-R1
T1 sequence: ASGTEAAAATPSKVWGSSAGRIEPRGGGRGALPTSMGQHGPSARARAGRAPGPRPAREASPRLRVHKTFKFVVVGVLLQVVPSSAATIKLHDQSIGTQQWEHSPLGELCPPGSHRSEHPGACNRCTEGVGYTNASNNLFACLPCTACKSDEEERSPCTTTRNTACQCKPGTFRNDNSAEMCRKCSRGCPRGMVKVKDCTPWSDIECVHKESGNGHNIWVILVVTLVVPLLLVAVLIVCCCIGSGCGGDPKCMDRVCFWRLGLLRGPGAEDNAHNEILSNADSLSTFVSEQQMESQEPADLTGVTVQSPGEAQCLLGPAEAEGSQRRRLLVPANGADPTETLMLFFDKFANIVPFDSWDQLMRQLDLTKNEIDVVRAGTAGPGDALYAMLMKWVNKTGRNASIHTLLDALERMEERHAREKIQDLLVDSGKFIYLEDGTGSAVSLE
As to the kind of experiment: flow cytometry, MDA-MB-231 cells, average ± SEM. (A flow cytometer gives signals particle by particle.)

In assay [2] the target is T1, human DR4 (Death Receptor 4), cell …. As to the kind of experiment: flow cytometry, MDA-MB-231 cells, N = 2.
Assay [3] addresses T2, human FAPα (Fibroblast activation protein alpha), cell surface expressed (human, UniProt Q12884 1-760).
T2 construct: Endogenous on human lung fibroblasts and CAFs
T2 sequence: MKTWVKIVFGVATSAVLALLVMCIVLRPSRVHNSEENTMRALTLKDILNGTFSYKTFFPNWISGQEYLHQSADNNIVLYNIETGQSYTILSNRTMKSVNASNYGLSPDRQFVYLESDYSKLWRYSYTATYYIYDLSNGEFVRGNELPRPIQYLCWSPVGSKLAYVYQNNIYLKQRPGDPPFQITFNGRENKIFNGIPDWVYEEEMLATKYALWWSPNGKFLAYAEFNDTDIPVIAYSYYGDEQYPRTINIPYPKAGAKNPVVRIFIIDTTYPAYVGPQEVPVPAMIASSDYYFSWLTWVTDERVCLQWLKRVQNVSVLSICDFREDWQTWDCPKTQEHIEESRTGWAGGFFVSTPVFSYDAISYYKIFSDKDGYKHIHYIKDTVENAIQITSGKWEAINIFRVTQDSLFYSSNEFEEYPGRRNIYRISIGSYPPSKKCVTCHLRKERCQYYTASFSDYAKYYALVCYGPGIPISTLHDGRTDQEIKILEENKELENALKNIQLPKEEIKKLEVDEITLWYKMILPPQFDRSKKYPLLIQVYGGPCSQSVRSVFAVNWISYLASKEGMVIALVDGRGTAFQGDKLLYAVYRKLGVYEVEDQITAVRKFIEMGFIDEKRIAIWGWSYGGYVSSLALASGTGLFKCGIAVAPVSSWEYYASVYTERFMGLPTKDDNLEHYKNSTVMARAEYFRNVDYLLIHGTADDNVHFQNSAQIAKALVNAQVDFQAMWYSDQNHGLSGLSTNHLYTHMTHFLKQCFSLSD
Briefly: flow cytometry, human lung fibroblasts, n = 2. The protocol:
Binding of bispecific or monoclonal antibodies carrying the anti-FAPα arm derived from IgG1-FAPα-FERL (BisG1-FAPα-FERL/DR4-FERR, BisG1-FAPα-FERL/b12-FERR, and IgG1-FAPα-FERL) to cell surface expressed human FAPα was analyzed by flow cytometry using human lung fibroblasts and CAFs, which endogenously express FAPα. BisG1-b12-FERL/b12-FERR was used as negative control.
Human lung fibroblasts and CAFs (50,000 cells/well) were seeded in 96-Well round bottom plates (Greiner Bio-one, Cat #650101). Antibody dilutions were prepared using fluorescence-activated cell sorting (FACS) buffer, consisting of phosphate buffer saline (PBS, Lonza, Cat #BE17-517Q)+1% Bovine Serum Albumin (BSA, Roche, Cat #10735086001)+0.02% Sodium Azide (Bio-World, Cat #41920044-3). Plates were centrifuged, supernatant was removed, cells were resuspended in 50 μL of human Fc Block (BD, Cat #564220, diluted 1:100 in FACS buffer) and 50 μL of viability stain TO-PRO-3 Iodide (Thermo Fisher, Cat #T3605, diluted 1: 25,000 in FACS buffer), and incubated for 15 min at 4° C. Plates were washed three times with FACS buffer. Plates were centrifuged, supernatant was removed, cells were resuspended in 50 μL of antibody dilutions (concentration range 90-0.0005 μg/mL, three-fold dilution steps using FACS buffer) of BisG1-FAPα-FERL/DR4-FERR, BisG1-FAPα-FERL/b12-FERR, BisG1-b12-FERL/b12-FERR (top six concentrations only for CAFs culture) or IgG1-FAPα-FERL (top four concentrations only for CAFs culture) and incubated for 30 min at 4° C. Cells were washed three times with FACS buffer and resuspended in 50 μL of Fluorescein isothiocyanate (FITC)-labeled polyclonal antibody goat anti-mouse IgG1 (Jackson Immuno Research, Cat #109-096-097, diluted 1:100 in FACS buffer). […] Antibody binding to viable cells (TO-PRO-3 negative) was analyzed by flow cytometry on a FACSCelesta™ (BD biosciences) and data were processed using FlowJo_v10.8.1 (FlowJo LLC). Geomean fluorescence intensity, gMFI, was determined and visualized using GraphPad Prism.

In assay [4] the target is T1, human DR4 (Death Receptor 4), cell …. Briefly: flow cytometry, A549 cells, n = 2.
Assay [5] has the same target. Briefly: flow cytometry, DLD-1 cells, average ± SEM.
Assay [6] shares this target. Briefly: flow cytometry, DLD-1 cells, n = 2.
The target is the same in assay [7]. Briefly: flow cytometry, MDA-MB-231 cells, average ± SEM. The source holds these as a separate data set.
Assay [8] shares this target. Briefly: flow cytometry, MDA-MB-231 cells, n = 1.
Assay [9] has the same target. Briefly: flow cytometry, DLD-1 cells, n = 1.

In general, EC50 refers to the concentration needed to bring the measured effect to its halfway point. A low value points to higher potency in that assay.

B1: BisG1-FAPα-FERL/DR4-FERR (bispecific antibody, human IgG1, kappa, lambda)
heavy 1: EVQLLESGGGLVQPGGSPRLSCEASGFTFSSYALSWVRQAPGKGLEWVSAISGSGGGRYYADSVKGRFTISRDNSKNTLFLQMNSLRAEDTAVYYCAKEGYSSSGTYWDHWGQGTLVTVSSASTKGPSVFPLAPSSKSTSGGTAALGCLVKDYFPEPVTVSWNSGALTSGVHTFPAVLQSSGLYSLSSVVTVPSSSLGTQTYICNVNHKPSNTKVDKRVEPKSCDKTHTCPPCPAPEFERGPSVFLFPPKPKDTLMISRTPEVTCVVVDVSHEDPEVKFNWYVDGVEVHNAKTKPREEQYNSTYRVVSVLTVLHQDWLNGKEYKCKVSNKALPAPIEKTISKAKGQPREPQVYTLPPSREEMTKNQVSLTCLVKGFYPSDIAVEWESNGQPENNYKTTPPVLDSDGSFLLYSKLTVDKSRWQQGNVFSCSVMHEALHNHYTQKSLSLSPG
light 1: AIQMTQSPSSVSASVGDRVTITCRASQGVSSWLAWYQQKPGRAPKLLIYVASTLQSGVPSRFSGSGSGTDFTLTINSLQPEDFATYYCQQANSFPPTFGQGTRLEMKRTVAAPSVFIFPPSDEQLKSGTASVVCLLNNFYPREAKVQWKVDNALQSGNSQESVTEQDSKDSTYSLSSTLTLSKADYEKHKVYACEVTHQGLSSPVTKSFNRGEC
heavy 2: QVQLQESGPGLVKPSGTLSLTCAVSGGSISSYSWWSWIRQPPGKGLEWIGELYHSGSTNYNPSLKSRVTISVDKSKNQFSLKLRSVTAADTAVYYCVRGVATIDYWGQGTLVTVSSASTKGPSVFPLAPSSKSTSGGTAALGCLVKDYFPEPVTVSWNSGALTSGVHTFPAVLQSSGLYSLSSVVTVPSSSLGTQTYICNVNHKPSNTKVDKRVEPKSCDKTHTCPPCPAPEFERGPSVFLFPPKPKDTLMISRTPEVTCVVVDVSHEDPEVKFNWYVDGVEVHNAKTKPREEQYNSTYRVVSVLTVLHQDWLNGKEYKCKVSNKALPAPIEKTISKAKGQPREPQVYTLPPSREEMTKNQVSLTCLVKGFYPSDIAVEWESNGQPENNYKTTPPVLDSDGSFFLYSRLTVDKSRWQQGNVFSCSVMHEALHNHYTQKSLSLSPG
light 2: QSALTQPPSASGSPGQSVTISCTGTSSDVGGYNFVSWYQQDPGKAPKLLIYEVTKRPSGVPDRFSGSKSGNTASLTVSGLQAEDEADYYCSSYAGSNNVMFGGGTKLTVLGQPKAAPSVTLFPPSSEELQANKATLVCLISDFYPGAVTVAWKADSSPVKAGVETTTPSKQSNNKYAASSYLSLTPEQWKSHRSYSCQVTHEGSTVEKTVAPTECS
notes: Human IgG1 bispecific made by controlled Fab-arm exchange of IgG1-FAPα-FERL and IgG1-DR4-FERR; monovalent for FAPα and for DR4; also called GEN1057
For B1, the half-maximal effective concentration (EC50) in [1] was 0.72 mg/L; in assay [2] it was 0.72 mg/L; in assay [3], 0.047 mg/L; in [4] it was 0.93 mg/L; in assay [5] it was 0.72 mg/L; in assay [6] it was 0.73 mg/L. Besides, the results for the EC50 in [7], in [8] and in assay [9] were 1.18 mg/L, 1.12 mg/L and 0.75 mg/L, respectively.

These data come from US20250002610A1 (Genmab, published 2025).
